Reference: patent US20250084172A1 (23ANDME, published 2025)
Numbering of substitutions follows the chain as printed. Names may count otherwise.

T1: human soluble ULBP6 haplotype 02 (hULBP6_02) (human, UniProt Q5VY80 26-218)
T1 construct: also called sULBP6_02
T1 chain: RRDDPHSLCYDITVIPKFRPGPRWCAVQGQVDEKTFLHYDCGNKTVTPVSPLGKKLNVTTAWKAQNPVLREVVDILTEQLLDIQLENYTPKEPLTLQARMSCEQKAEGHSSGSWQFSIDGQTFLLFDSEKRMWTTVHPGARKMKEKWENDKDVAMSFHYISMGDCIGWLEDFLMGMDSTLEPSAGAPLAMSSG

T2: human soluble ULBP6 haplotype 01 (hULBP6_01) (human, UniProt Q5VY80 27-218, limits assumed)
T2 construct: also called sULBP6_01
T2 chain: T1 chain with R1G, L81R, T122I

T3: cynomolgus soluble ULBP5 (cULBP5) (cynomolgus)
T3 construct: also called Cyno-cULBP5
T3 chain: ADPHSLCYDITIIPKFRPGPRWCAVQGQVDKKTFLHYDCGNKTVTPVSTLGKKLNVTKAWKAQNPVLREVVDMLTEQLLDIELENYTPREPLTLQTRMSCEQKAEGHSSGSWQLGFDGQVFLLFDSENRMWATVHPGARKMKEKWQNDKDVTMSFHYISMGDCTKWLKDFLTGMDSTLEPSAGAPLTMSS

T4: human soluble ULBP2 (hULBP2) (human, UniProt Q9BZM5 26-216)
T4 construct: also called sULBP2
T4 sequence: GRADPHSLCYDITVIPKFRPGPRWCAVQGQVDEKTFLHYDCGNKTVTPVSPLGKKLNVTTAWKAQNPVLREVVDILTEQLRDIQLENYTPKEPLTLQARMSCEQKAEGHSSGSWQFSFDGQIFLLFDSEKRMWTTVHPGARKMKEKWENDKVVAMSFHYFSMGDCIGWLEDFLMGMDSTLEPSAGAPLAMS

T5: cynomolgus soluble ULBP2/6 (cULBP2/6) (cynomolgus, UniProt Q5VY80 28-217 (human entry), limits assumed)
T5 construct: also called cyno ULBP6; Cyno-cULBP2/6
T5 chain: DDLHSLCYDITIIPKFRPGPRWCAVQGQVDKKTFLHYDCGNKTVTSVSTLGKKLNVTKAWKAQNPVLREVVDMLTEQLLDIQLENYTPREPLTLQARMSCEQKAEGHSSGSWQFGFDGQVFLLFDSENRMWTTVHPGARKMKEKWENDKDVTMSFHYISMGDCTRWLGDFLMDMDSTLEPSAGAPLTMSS

T6: human soluble ULBP5 (hULBP5) (human, UniProt Q6H3X3 26-218)
T6 construct: also called sULBP5
T6 sequence: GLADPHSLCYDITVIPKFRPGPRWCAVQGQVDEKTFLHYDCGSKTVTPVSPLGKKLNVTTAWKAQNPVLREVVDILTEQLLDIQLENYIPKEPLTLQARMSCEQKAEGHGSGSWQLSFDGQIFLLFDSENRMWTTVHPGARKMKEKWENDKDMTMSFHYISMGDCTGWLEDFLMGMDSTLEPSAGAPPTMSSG

T7: cell surface ULBP6_01 on COV644 cells (human, UniProt Q5VY80 27-218)
T7 construct: whole, on cells; also called cell surface ULBP6 (COV644)
T7 chain: T1 chain with R1G, L81R, T122I

T8: cell surface ULBP6_02 on PANC02.13 cells (human, UniProt Q5VY80 26-218)
T8 construct: whole, on cells; also called cell surface ULBP6 (PANC02.13)
T8 chain: T1 chain

T9: human ULBP6 displayed on M13 phage (ULBP6-HA-pIII) (human, UniProt Q5VY80 26-218)
T9 construct: also called ULBP6 phage; not shown: M13 minor coat protein pIII
T9 sequence: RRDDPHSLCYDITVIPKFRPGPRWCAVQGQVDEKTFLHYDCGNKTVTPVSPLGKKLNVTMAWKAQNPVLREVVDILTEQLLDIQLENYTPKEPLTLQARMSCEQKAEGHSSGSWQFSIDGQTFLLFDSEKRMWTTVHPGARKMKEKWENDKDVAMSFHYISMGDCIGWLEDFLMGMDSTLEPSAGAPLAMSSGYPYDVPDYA

B1: Humanized 6E1 (h6E1) (E-) (antibody, human IgG1, kappa, N297G, V domains shown)
VH: EVQLVQSGAEVKKPGASVKVSCKASGYTFTNYWMHWMRQAPGQGLEWLGRIHPSDSDTNYNQKFKGRATLTVDKSISTAYMELSRLRSDDTAVYYCAIEGTGKGYFDVWGRGTLVTVSS
VL: DIQMTQSPSSLSASVGDRVTITCKASQDIYSYLSWFQQKPGKSPKTLIYRANRLVDGVPSRFSGSGSGQDFTLTISSLQPEDFATYYCLHYDEFPLTFGGGTKVEIKR
notes: hIgG1 with N297G (effector negative)
B2: humanized 1D4 (h1D4), Fc version not stated (antibody, V domains shown)
VH: EIQLVQSGSELKKPGASVKVSCKASGYTFTEYPIHWVRQAPGQGFEWMGMIYTDTGEPTHAEEFKGRFVFSLDTSVSTAYLQISSLKAEDTAVYFCVRWYDGSSYIMDYWGQGTTVTVSS
VL: DIQMTQSPSSLSASVGDRVTITCKASQDINSYLSWFQQKPGKSPKTLIYRANRLVDGVPSRFSGSGSGQDYTFTISSLQPEDIATYYCLQYDEFPLTFGGGTKVEIK
notes: Recombinant humanized antibody, hIgG1 backbone with kappa light chain; also called hiD4; hu1D4
B3: Humanized 1D4 (h1D4) (E-) (antibody, human IgG1, kappa, N297G, V domains shown)
VH: B2 VH
VL: B1 VL with Y30N, F71Y, L73F, F83I, H90Q
notes: as for B1
B4: humanized 6E1 (h6E1), Fc version not stated (antibody, V domains shown)
VH: B1 VH
VL: B2 VL with N30Y, Y71F, F73L, I83F, Q90H
notes: Recombinant humanized antibody, hIgG1 backbone with kappa light chain; also called hu6E1; PUR3993
B5: human soluble MICB (hMICB) (ligand)
chain: AEPHSLRYNLMVLSQDESVQSGFLAEGHLDGQPFLRYDRQKRRAKPQGQWAEDVLGAKTWDTETEDLTENGQDLRRTLTHIKDQKGGLHSLQEIRVCEIHEDSSTRGSRHFYYDGELFLSQNLETQESTVPQSSRAQTLAMNVTNFWKEDAMKTKTHYRAMQADCLQKLQRYLKSGVAIRRTVPPMVNVTCSEVSEGNITVTCRASSFYPRNITLTWRQDGVSLSHNTQQWGDVLPDGNGTYQTWVATRIRQGEEQRFTCYMEHSGNHGTHPVPSGKVLVLQSQRTD
notes: the printed Uniprot number (29983) looks wrong; also called sMICB
B6: humanized 8E11 (h8E11), Fc version not stated (antibody, V domains shown)
VH: EVQLVESGGGLVQPGGSLRLSCAASGFTFRTYGMHWVRQAPGKGLEWVAYISSGSGTIDYADTVKGRFTISRDNAKNSLYLQMNSLRAEDTAVYYCTRQTGAMDYWGQGTLVTVSS
VL: EIVLTQSPATLSLSPGERATLSCSASSSVSYMNWYQQKPGQSPRLWIYGISNLASGVPARFSGSGSGTDFTLTISSLEPEDFAVYYCQQRSSHPLTFGGGTKVEIK
notes: Recombinant humanized antibody, hIgG1 backbone with kappa light chain; also called PUR3926

Legend:
[1] = molecular target: T1, human soluble ULBP6 haplotype 02 …; experiment: blocking ELISA; hNKG2D coated, antibody titrated with biotinylated hULBP6_02
[2] = molecular target: T2, human soluble ULBP6 haplotype 01 …; experiment: blocking ELISA; hNKG2D coated, antibody titrated with biotinylated hULBP6_01
[3] = molecular target: T2, human soluble ULBP6 haplotype 01 …; experiment: SPR (BIACORE);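 further: soluble human and cynomolgus NKG2D ligands injected as analytes in 3-fold dilution series spanning 0.01 to 50 nM at 37 °C, reference-subtracted sensorgrams fitted to a 1:1 Langmuir model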
[4] = molecular target: T3, cynomolgus soluble ULBP5 (cULBP5); experiment: SPR (BIACORE);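 further: soluble human and cynomolgus NKG2D ligands injected as analytes in 3-fold dilution series spanning 0.01 to 50 nM at 37 °C, reference-subtracted sensorgrams fitted to a 1:1 Langmuir model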
[5] = molecular target: T4, human soluble ULBP2 (hULBP2); experiment: SPR (BIACORE);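 further: soluble human and cynomolgus NKG2D ligands injected as analytes in 3-fold dilution series spanning 0.01 to 50 nM at 37 °C, reference-subtracted sensorgrams fitted to a 1:1 Langmuir model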
[6] = molecular target: T5, cynomolgus soluble ULBP2/6 (cULBP2/6); experiment: SPR (BIACORE);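 further: soluble human and cynomolgus NKG2D ligands injected as analytes in 3-fold dilution series spanning 0.01 to 50 nM at 37 °C, reference-subtracted sensorgrams fitted to a 1:1 Langmuir model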
[7] = molecular target: T6, human soluble ULBP5 (hULBP5); experiment: SPR (BIACORE)
[8] = molecular target: T1, human soluble ULBP6 haplotype 02 …; experiment: SPR (BIACORE)
[9] = molecular target: T7, cell surface ULBP6_01 on COV644 cells; experiment: flow cytometry; blocking of hNKG2D-mFc binding to COV644 cells, average of 2 replicates
[10] = molecular target: T7, cell surface ULBP6_01 on COV644 cells; experiment: flow cytometry on COV644 cells, anti-hFc-APC detection, average of 2 replicates
[11] = molecular target: T8, cell surface ULBP6_02 on PANC02.13 cells; experiment: flow cytometry on PANC02.13 cells, anti-hFc-APC detection, average of 2 replicates
[12] = molecular target: T2, human soluble ULBP6 haplotype 01 …; experiment: SPR (BIACORE 8K, 37 C); antibody captured on Protein A, soluble ULBP injected;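 further: ligand injected as threefold dilution series in HBS-P (highest 10 or 50 nM), reference-cell and buffer-subtracted sensorgrams fitted with a 1:1 Langmuir model for on and off rates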
[13] = molecular target: T3, cynomolgus soluble ULBP5 (cULBP5); experiment: as above
[14] = molecular target: T4, human soluble ULBP2 (hULBP2); experiment: as above
[15] = molecular target: T5, cynomolgus soluble ULBP2/6 (cULBP2/6); experiment: as above
[16] = molecular target: T1, human soluble ULBP6 haplotype 02 …; experiment: as above
[17] = molecular target: T9, human ULBP6 displayed on M13 phage …; experiment: phage ELISA: plate coated with the antibody, ULBP6 phage titrated in 3-fold steps from 1.0 O.D./mL, HRP anti-M13 detection, O.D. 450
[18] = molecular target: hNKG2D-Fc (human NKG2D 78-216 with C-terminal long huFc-Flag tag) (human); experiment: SPR (BIACORE 8K, 37 C); hNKG2D-Fc captured on Protein A, soluble ligand injected
Sequence of hNKG2D-Fc (human NKG2D 78-216 with C-terminal long huFc-Flag tag) (human) (chain, as listed by the source limits assumed): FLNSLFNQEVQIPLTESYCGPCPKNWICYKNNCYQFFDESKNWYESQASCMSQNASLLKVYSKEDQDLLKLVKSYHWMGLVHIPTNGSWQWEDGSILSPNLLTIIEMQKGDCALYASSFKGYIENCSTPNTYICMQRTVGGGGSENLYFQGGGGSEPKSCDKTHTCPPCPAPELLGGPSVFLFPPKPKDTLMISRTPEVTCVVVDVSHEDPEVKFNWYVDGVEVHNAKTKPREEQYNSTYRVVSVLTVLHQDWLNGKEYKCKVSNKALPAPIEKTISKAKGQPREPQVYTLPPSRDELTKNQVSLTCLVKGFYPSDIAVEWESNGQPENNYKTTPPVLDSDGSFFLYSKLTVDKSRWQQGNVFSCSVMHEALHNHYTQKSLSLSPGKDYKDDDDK

Binder	IC50 [1]	IC50 [9]	EC50 [10]	EC50 [11]	Kd [12]	koff [12]	kon [12]	Kd [13]	koff [13]	kon [13]	Kd [14]	koff [14]	kon [14]	Kd [15]	koff [15]	kon [15]	Kd [16]	koff [16]	kon [16]	EC50 (read off the curve) [17]	other results
B1	0.103 nM	–	–	–	–	–	–	–	–	–	–	–	–	–	–	–	–	–	–	–	IC50 [2]: 10.2 nM; Kd [3]: 4.38 nM; Kd [4]: 1.03 nM; Kd [5]: 8.91 nM; Kd [6]: 1.76 nM; Kd [7]: 8.7 nM; Kd [8]: 0.68 nM
B2	–	0.22 nM	1.4 nM	0.72 nM	0.422 nM	0.00114 s⁻¹	2.69e+06 M⁻¹ s⁻¹	0.735 nM	0.00105 s⁻¹	1.43e+06 M⁻¹ s⁻¹	0.642 nM	0.00148 s⁻¹	2.31e+06 M⁻¹ s⁻¹	0.151 nM	0.00133 s⁻¹	8.84e+06 M⁻¹ s⁻¹	1.31 nM	0.00215 s⁻¹	1.64e+06 M⁻¹ s⁻¹	~0.006 O.D. (phage)	–
B3	0.265 nM	–	–	–	–	–	–	–	–	–	–	–	–	–	–	–	–	–	–	–	IC50 [2]: 7.7 nM; Kd [3]: 0.41 nM; Kd [4]: 0.63 nM; Kd [5]: 0.47 nM; Kd [6]: 0.99 nM; Kd [7]: 8.88 nM; Kd [8]: 1.06 nM
B4	–	0.2 nM	0.36 nM	0.44 nM	5.24 nM	0.0246 s⁻¹	4.7e+06 M⁻¹ s⁻¹	1.51 nM	0.00922 s⁻¹	6.1e+06 M⁻¹ s⁻¹	10.7 nM	0.0386 s⁻¹	3.62e+06 M⁻¹ s⁻¹	0.415 nM	0.0115 s⁻¹	2.77e+07 M⁻¹ s⁻¹	0.939 nM	0.00664 s⁻¹	7.07e+06 M⁻¹ s⁻¹	~0.006 O.D. (phage)	–
B5	–	–	–	–	–	–	–	–	–	–	–	–	–	–	–	–	–	–	–	–	Kd [18]: 118 nM
B6	–	0.11 nM	1.29 nM	1.28 nM	0.331 nM	0.000492 s⁻¹	1.48e+06 M⁻¹ s⁻¹	23.9 nM	0.00333 s⁻¹	139000 M⁻¹ s⁻¹	0.662 nM	0.000542 s⁻¹	819000 M⁻¹ s⁻¹	11.4 nM	0.0045 s⁻¹	396000 M⁻¹ s⁻¹	0.383 nM	0.000459 s⁻¹	1.2e+06 M⁻¹ s⁻¹	~0.006 O.D. (phage)	–
